Data: patent US20130066054A1 (UCB, published 2013)
Positions count from the first letter of the chain named. Names and notes keep the numbering of the source. Values joined by “and” are separate entries in the source; they are usually repeats but may differ in a detail not shown here. Equal entries are not always repeated. Each block holds one binder with its values, some of them ahead of it.

Tests used:
[1] = target: T1, OX40 (UniProt P43489 29-214); experiment: SPR (Biacore 3000), Fab-dsFv captured, antigen injected, 1:1 fit;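 further: capture antibody amine-coupled on chip, 3 min antigen association then 20 min dissociation, antigen titrated, reference flow-cell and buffer blanks subtracted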
T1 construct: also called O × 40
T1 sequence (looked up): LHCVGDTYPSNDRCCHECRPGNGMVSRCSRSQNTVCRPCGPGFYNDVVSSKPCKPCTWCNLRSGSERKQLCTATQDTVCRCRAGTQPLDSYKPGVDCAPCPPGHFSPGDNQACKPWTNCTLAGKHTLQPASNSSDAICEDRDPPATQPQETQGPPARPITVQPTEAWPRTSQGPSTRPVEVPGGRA
Experimental: (§1) Covalent immobilisation of the capture antibody was achieved by standard amine coupling chemistry.
(§2) Each assay cycle consisted of firstly capturing the Fab-dsFv using a 1 min injection, before an association phase consisting of a 3 min injection of antigen, after which dissociation was monitored for 20 min. After each cycle, the capture surface was regenerated with 2×1 min injections of 40 mM HCl followed by 30 s of 5 mM NaOH. The flow rates used were 10 μl/min for capture, 30 μl/min for association and dissociation phases, and 10 μl/min for regeneration.
(§3) For kinetic assays, a titration of antigen was performed, a blank flow-cell was used for reference subtraction and buffer-blank injections were included to subtract instrument noise and drift.

[2] = target: T2, human serum albumin (human, UniProt P02768 25-609); experiment: as above
T2 construct: also called HSA
Experimental: as §1, §2, §3

- Kd [1]: 0.194 nM and 0.19 nM
- koff [1]: 9.24e-05 s⁻¹
- kon [1]: 477000 M⁻¹ s⁻¹
- Kd [2]: 2.06 nM
- koff [2]: 0.000257 s⁻¹
- kon [2]: 125000 M⁻¹ s⁻¹
B4: A26-645 Ser171Cys K (bispecific antibody)
heavy: EVQLVESGGGLVQPGGSLRLSCAASGFTFTNYGIHWIRQAPGKGLEWVASISPSGGLTYYRDSVKGRFTISRDDAKNSPYLQMNSLRAEDTAVYYCATGGEGIFDYWGQGTLVTVSSASTKGPSVFPLAPSSKSTSGGTAALGCLVKDYFPEPVTVSWNSGALTSGVHTFPAVLQSSGLYSLSSVVTVPSSSLGTQTYICNVNHKPSNTKVDKKVEPKSCSGGGGSGGGGSGGGGSEVQLLESGGGLVQPGGSLRLSCAVSGIDLSNYAINWVRQAPGKCLEWIGIIWASGTTFYATWAKGRFTISRDSTTVYLQMNSLRAEDTAVYYCARTVPGYSTAPYFDLWGQGTLVTVSS
light: DIQMTQSPSSLSASVGDRVTITCRATQSIYNALAWYQQKPGKAPKLLIYNANTLHTGVPSRFSASGSGTDSTLTISSLQPEDFATYYCQQYYDYPLTFGGGTKVEIKRTVAAPSVFIFPPSDEQLKSGTASVVCLLNNFYPREAKVQWKVDNALQSGNSQESVTEQDSKDCTYSLSSTLTLSKADYEKHKVYACEVTHQGLSSPVTKSFNRGECSGGGGSGGGGSGGGGSDIVMTQSPSSVSASVGDRVTITCQSSPSVWSNFLSWYQQKPGKAPKLLIYEASKLTSGVPSRFKGSGSGTDFTLTISSLQPEDFATYYCGGGYSSISDTTFGCGTKVEIK
notes: Surface cysteine mutant of A26-645 (Kabat numbering); also called S171C CK; mutation 11

- Kd [1]: 0.247 nM and 0.25 nM
- koff [1]: 0.000117 s⁻¹
- kon [1]: 473000 M⁻¹ s⁻¹
- Kd [2]: 1.09 nM
- koff [2]: 0.000257 s⁻¹
- kon [2]: 236000 M⁻¹ s⁻¹
B5: A26-645 Ser82bCys H (bispecific antibody)
heavy: B4 heavy with S318C
light: B4 light with C171S
modifications: 645 Fv disulfide between Cys44 of SEQ ID NO 227 and Cys100 of SEQ ID NO 44 (Kabat); both cysteines are already in the letters
notes: Surface cysteine mutant of A26-645 in the 645 Fv heavy domain (Kabat numbering); also called S82bC 645 Fv Heavy; mutation 6

- Kd [1]: 0.231 nM and 0.23 nM
- koff [1]: 0.000107 s⁻¹
- kon [1]: 465000 M⁻¹ s⁻¹
- Kd [2]: 1.72 nM
- koff [2]: 0.00025 s⁻¹
- kon [2]: 145000 M⁻¹ s⁻¹
B9: A26-645 Lys149Cys K (bispecific antibody)
heavy: B4 heavy
light: B4 light with K149C, C171S
notes: Surface cysteine mutant of A26-645 (Kabat numbering); also called K149C CK; mutation 10

- Kd [1]: 0.265 nM and 0.27 nM
- koff [1]: 0.000146 s⁻¹
- kon [1]: 550000 M⁻¹ s⁻¹
- Kd [2]: 3.34 nM
- koff [2]: 0.000722 s⁻¹
- kon [2]: 216000 M⁻¹ s⁻¹
B10: A26-645 Ser163Cys H (bispecific antibody)
heavy: B4 heavy with S160C
light: B4 light with C171S
modifications: 645 Fv disulfide between Cys44 of SEQ ID NO 227 and Cys100 of SEQ ID NO 44 (Kabat); both cysteines are already in the letters
notes: Surface cysteine mutant of A26-645 (Kabat numbering); also called S163C CH1; mutation 2

- Kd [1]: 0.247 nM and 0.25 nM
- koff [1]: 0.000108 s⁻¹
- kon [1]: 437000 M⁻¹ s⁻¹
- Kd [2]: 1.95 nM
- koff [2]: 0.000411 s⁻¹
- kon [2]: 210000 M⁻¹ s⁻¹
B12: A26-645 Ser182Cys H (bispecific antibody)
heavy: B4 heavy with S177C
light: B4 light with C171S
modifications: 645 Fv disulfide between Cys44 of SEQ ID NO 227 and Cys100 of SEQ ID NO 44 (Kabat); both cysteines are already in the letters
notes: Surface cysteine mutant of A26-645; also called A26-645 Ser180Cys H; S182C CH1

- Kd [1]: 0.27 nM
- koff [1]: 0.000146 s⁻¹
- kon [1]: 540000 M⁻¹ s⁻¹
- Kd [2]: 1.87 nM
- koff [2]: 0.000351 s⁻¹
- kon [2]: 188000 M⁻¹ s⁻¹
B13: A26-645 Thr116Cys H (bispecific antibody)
heavy: B4 heavy with T120C
light: B4 light with C171S
modifications: 645 Fv disulfide between Cys44 of SEQ ID NO 227 and Cys100 of SEQ ID NO 44 (Kabat); both cysteines are already in the letters
notes: Surface cysteine mutant of A26-645 (Kabat numbering); also called T116C CH1; mutation 1

- Kd [1]: 0.248 nM and 0.25 nM
- koff [1]: 0.000117 s⁻¹
- kon [1]: 470000 M⁻¹ s⁻¹
- Kd [2]: 2.75 nM
- koff [2]: 0.000282 s⁻¹
- kon [2]: 102000 M⁻¹ s⁻¹
B14: A26-645 Ser77Cys K (bispecific antibody)
heavy: B4 heavy
light: B4 light with C171S, S308C
notes: Surface cysteine mutant of A26-645 in the 645 Fv light domain (Kabat numbering); also called S77C 645 Fv light; mutation 14

Further lines, the binder ahead of its results:

B1: A26Fab-(3xG4S)-dsFv645 (bispecific antibody)
heavy: B4 heavy
light: B4 light with C171S
modifications: 645 Fv disulfide between Cys44 of SEQ ID NO 227 and Cys100 of SEQ ID NO 44 (Kabat); both cysteines are already in the letters
notes: Fab-dsFv: anti-OX40 A26 Fab with the anti-HSA 645 disulfide-stabilised Fv at the C-termini; The asterisk of 'A26-645std*' is not explained; also called A26-645std; A26-645std*
- Kd [1]: 0.328 nM and 0.33 nM and 0.463 nM and 0.46 nM
- koff [1]: 0.000149 s⁻¹ and 0.000191 s⁻¹
- kon [1]: 452000 M⁻¹ s⁻¹ and 413000 M⁻¹ s⁻¹
- Kd [2]: 3.57 nM and 4.11 nM
- koff [2]: 0.000461 s⁻¹ and 0.000421 s⁻¹
- kon [2]: 129000 M⁻¹ s⁻¹ and 103000 M⁻¹ s⁻¹

B2: A26-645 Asn210Cys K (bispecific antibody)
heavy: B4 heavy
light: B4 light with C171S, N210C
modifications: 645 Fv disulfide between Cys44 of SEQ ID NO 227 and Cys100 of SEQ ID NO 44 (Kabat); both cysteines are already in the letters
notes: Surface cysteine mutant of A26-645 (Kabat numbering); also called N210C CK; mutation 12
- Kd [1]: 0.229 nM and 0.23 nM
- koff [1]: 0.000111 s⁻¹
- kon [1]: 483000 M⁻¹ s⁻¹
- Kd [2]: 1.6 nM
- koff [2]: 0.000284 s⁻¹
- kon [2]: 178000 M⁻¹ s⁻¹

B3: A26-645 Lys145Cys K (bispecific antibody)
heavy: B4 heavy
light: B4 light with K145C, C171S
notes: Surface cysteine mutant of A26-645 (Kabat numbering); also called K145C CK; mutation 9
- Kd [1]: 0.241 nM and 0.24 nM
- koff [1]: 0.00011 s⁻¹
- kon [1]: 457000 M⁻¹ s⁻¹
- Kd [2]: 1.89 nM
- koff [2]: 0.000259 s⁻¹
- kon [2]: 137000 M⁻¹ s⁻¹

B6: A26-645 Glu143Cys K (bispecific antibody)
heavy: B4 heavy
light: B4 light with E143C, C171S
notes: Surface cysteine mutant of A26-645 (Kabat numbering); also called E143C CK; mutation 8
- Kd [1]: 0.325 nM and 0.33 nM
- koff [1]: 0.000155 s⁻¹
- kon [1]: 477000 M⁻¹ s⁻¹
- Kd [2]: 2.2 nM
- koff [2]: 0.000337 s⁻¹
- kon [2]: 153000 M⁻¹ s⁻¹

B7: A26-645 Cys233Ser H (bispecific antibody)
heavy: B4 heavy with C220S
light: B4 light with C171S
modifications: 645 Fv disulfide between Cys44 of SEQ ID NO 227 and Cys100 of SEQ ID NO 44 (Kabat); both cysteines are already in the letters
notes: Control mutant of A26-645 without the heavy chain's interchain cysteine (Kabat numbering); also called C233S CH1; mutation 5
- Kd [1]: 0.27 nM
- koff [1]: 0.000124 s⁻¹
- kon [1]: 461000 M⁻¹ s⁻¹
- Kd [2]: 1.76 nM
- koff [2]: 0.000275 s⁻¹
- kon [2]: 157000 M⁻¹ s⁻¹

B8: A26-645 Lys107Cys K (bispecific antibody)
heavy: B4 heavy
light: B4 light with C171S, K340C
notes: Surface cysteine mutant of A26-645 in the 645 Fv light domain (Kabat numbering); also called K107C 645 Fv light; mutation 15
- Kd [1]: 0.234 nM and 0.23 nM
- koff [1]: 0.00012 s⁻¹
- kon [1]: 515000 M⁻¹ s⁻¹
- Kd [2]: 2.28 nM
- koff [2]: 0.000342 s⁻¹
- kon [2]: 150000 M⁻¹ s⁻¹

B11: A26-645 Cys214Ser K (bispecific antibody)
heavy: B4 heavy
light: B4 light with C171S, C214S
modifications: 645 Fv disulfide between Cys44 of SEQ ID NO 227 and Cys100 of SEQ ID NO 44 (Kabat); both cysteines are already in the letters
notes: Control mutant of A26-645 without the light chain's interchain cysteine (Kabat numbering); also called C214S CK; mutation 13
- Kd [1]: 0.278 nM and 0.28 nM
- koff [1]: 0.000122 s⁻¹
- kon [1]: 437000 M⁻¹ s⁻¹
- Kd [2]: 1.7 nM
- koff [2]: 0.000282 s⁻¹
- kon [2]: 166000 M⁻¹ s⁻¹
